Experimental data published in US20250340622A1 (AstraZeneca / MedImmune, published 2025).

What was measured:
Assay in all cases: cell-based or functional assay
[1] = biological target: RSV B F protein variant I206M:Q209R (RSV B)
[2] = biological target: RSV B F protein variant L203I (RSV B)
[3] = biological target: RSV B F protein variant K65Q:K68N (RSV B)
[4] = biological target: RSV B F protein variant K68Q:S211N (RSV B)
[5] = biological target: RSV B F protein variant N201S (RSV B)
[6] = biological target: RSV B F protein variant K68Q:I206M:Q209R (RSV B)
[7] = biological target: RSV B F protein variant N201T:I206M:Q209R (RSV B)
[8] = biological target: RSV B F protein variant K68N (RSV B)
[9] = biological target: RSV B F protein variant I64T:K68E:I206M:Q209R (RSV B)
[10] = biological target: RSV B F protein variant S211N (RSV B)
[11] = biological target: RSV B F protein variant I206M:Q209R:S211N (RSV B)
[12] = biological target: RSV B F protein variant N208D (RSV B, strain B9320)
[13] = biological target: RSV B F protein variant N208S (RSV B)
[14] = biological target: RSV B F protein variant K68N:N201S (RSV B, strain B9320)
[15] = biological target: RSV B F protein variant K68N:N208S (RSV B, strain B9320)

B1: nirsevimab (antibody, human IgG1, kappa, V domains shown)
VH: QVQLVQSGAEVKKPGSSVMVSCQASGGLLEDYIINWVRQAPGQGPEWMGGIIPVLGTVHYGPKFQGRVTITADESTDTAYMELSSLRSEDTAMYYCATETALVVSETYLPHYFDNWGQGTLVTVSS
VL: DIQMTQSPSSLSAAVGDRVTITCQASQDIVNYLNWYQQKPGKAPKLLIYVASNLETGVPSRFSGSGSGTDFSLTISSLQPEDVATYYCQQYDNLPLTFGGGTKVEIKR
How did the “fold change in susceptibility to nirsevimab” value (“fold change in susceptibility” below) [1] turn out when B1 was run?
The value was 0.23 fold.

What about the “fold reduced susceptibility to nirsevimab neutralization (recombinant RSV neutralization susceptibility assay)” value [2] of the same binder?
Its value is 3000 fold.

What about the “fold reduced susceptibility to nirsevimab neutralization (recombinant RSV neutralization susceptibility assay)” value [3] of the same binder?
Its value is 1240 fold.

What about the “fold reduced susceptibility to nirsevimab neutralization (recombinant RSV neutralization susceptibility assay)” value [4] of the same binder?
The value was 35.7 fold.

What about the “fold reduced susceptibility to nirsevimab neutralization (recombinant RSV neutralization susceptibility assay)” value [5] of the same binder?
The value was 127 fold.

What about the “fold reduced susceptibility to nirsevimab neutralization (recombinant RSV neutralization susceptibility assay)” value [6] of the same binder?
Its value is 46.4 fold.

And the “fold reduced susceptibility to nirsevimab neutralization (recombinant RSV neutralization susceptibility assay)” value [7]?
The value was over 418 fold.

And the “fold reduced susceptibility to nirsevimab neutralization (recombinant RSV neutralization susceptibility assay)” value [8]?
Its value is 29.9 fold.

And the “fold reduced susceptibility to nirsevimab neutralization (recombinant RSV neutralization susceptibility assay)” value [9]?
The value was over 447 fold.

And the “fold change in susceptibility” value [10]?
The value was 1.2 fold.

What about the “fold change in susceptibility” value [11] of the same binder?
The value was 0.5 fold.

What about the “fold reduced susceptibility to nirsevimab (recombinant RSV B variant)” value [12] of the same binder?
The value was over 90000 fold.

What about the “fold reduced susceptibility to nirsevimab (recombinant RSV B variant)” value [13] of the same binder?
The value was over 24000 fold.

And the “fold reduced susceptibility to nirsevimab neutralization (recombinant RSV neutralization susceptibility assay)” value [13]?
Its value is over 387 fold.

What about the “fold reduced susceptibility to nirsevimab (recombinant RSV B variant)” value [14] of the same binder?
Its value is over 13000 fold.

What about the “fold reduced susceptibility to nirsevimab (recombinant RSV B variant)” value [15] of the same binder?
Its value is over 90000 fold.
